Data: patent publication US20230357429A1 (JANUX THERAPEUTICS, published 2023)
Blank lines part the entries; values can stand above or below the binder they belong to. Where no end group is shown, it is not given here.

Columns and labels:
[1] = target: T1, Human TROP2 ECD (31-274 AA), biotinylated (human, UniProt P09758 31-274, biotinylated (site not stated)); assay: ELISA on immobilized TROP2
T1 construct: also called tumor-associated calcium signal transducer 2; Human TROP2-biotin
T1 sequence: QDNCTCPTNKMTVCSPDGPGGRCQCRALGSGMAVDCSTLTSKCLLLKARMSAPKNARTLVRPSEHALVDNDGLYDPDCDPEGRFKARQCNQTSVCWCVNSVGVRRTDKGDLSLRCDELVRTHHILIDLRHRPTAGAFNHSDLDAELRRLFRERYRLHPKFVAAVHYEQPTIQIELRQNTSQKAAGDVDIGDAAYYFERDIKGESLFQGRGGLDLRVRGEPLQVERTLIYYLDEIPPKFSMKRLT

[2] = target: T2, Human TROP2 ECD (31-274 AA), biotinylated (human, UniProt P09758 31-274, biotinylated (site not stated)); assay: ELISA, captured biotin-TROP2
T2 construct: also called TROP2-biotin; Trop2-biotin
T2 sequence: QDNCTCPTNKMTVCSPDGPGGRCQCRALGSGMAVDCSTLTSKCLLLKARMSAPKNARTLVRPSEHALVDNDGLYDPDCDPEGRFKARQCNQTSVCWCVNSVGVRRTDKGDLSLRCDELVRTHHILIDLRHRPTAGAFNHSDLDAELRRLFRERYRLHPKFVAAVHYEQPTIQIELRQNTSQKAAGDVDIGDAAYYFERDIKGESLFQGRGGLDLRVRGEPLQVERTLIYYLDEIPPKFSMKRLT

[3] = target: T3, CD3 (biotinylated CD3 antigen) (human, UniProt P07766 23-126, limits assumed, biotinylated (site not stated)); assay: ELISA, captured biotin-CD3
T3 construct: also called CD3ε; human CD3

Human TROP2 Full length = target: T4, Human TROP2 Full length (human, UniProt P09758 31-323); assay: cell-based or functional assay
T4 sequence: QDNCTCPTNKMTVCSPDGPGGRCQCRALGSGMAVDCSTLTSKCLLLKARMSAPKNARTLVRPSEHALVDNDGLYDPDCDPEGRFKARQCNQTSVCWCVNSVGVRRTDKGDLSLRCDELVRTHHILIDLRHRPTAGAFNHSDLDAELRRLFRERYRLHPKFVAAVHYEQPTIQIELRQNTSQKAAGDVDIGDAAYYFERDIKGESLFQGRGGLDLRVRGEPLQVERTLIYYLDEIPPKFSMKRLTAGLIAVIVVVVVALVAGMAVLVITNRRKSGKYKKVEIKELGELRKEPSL

Cyno TROP2 Full length = target: T5, Cyno TROP2 Full length (cynomolgus monkey, UniProt P09758 31-323 (human entry)); assay: cell-based or functional assay
T5 chain: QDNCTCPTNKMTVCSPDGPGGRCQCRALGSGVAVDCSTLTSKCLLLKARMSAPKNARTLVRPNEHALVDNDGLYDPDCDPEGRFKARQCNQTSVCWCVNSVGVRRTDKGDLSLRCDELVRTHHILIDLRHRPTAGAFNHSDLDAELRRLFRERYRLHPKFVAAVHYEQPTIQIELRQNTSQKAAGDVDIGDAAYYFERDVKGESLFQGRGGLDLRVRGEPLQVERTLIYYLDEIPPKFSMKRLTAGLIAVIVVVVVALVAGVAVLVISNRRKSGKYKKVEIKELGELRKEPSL

[4] = target: T1, Human TROP2 ECD (31-274 AA), …; assay: ELISA on immobilized TROP2; binder pre-treated with MTSP1
[5] = target: T1, Human TROP2 ECD (31-274 AA), …; assay: as above; remark: listed apart in the source
Peptide-73 = target: T6, Peptide-73 (cysteine pairing not given here; also: biotinylated, site not given here); assay: ELISA, TCE on captured biotin-peptide
T6 construct: mask peptide for the CD3 scFv
T6 peptide: VYCGPEFDESVGCA

Peptide-76 = target: T7, Peptide-76 (cysteine pairing not given here; also: biotinylated, site not given here); assay: ELISA, TCE on captured biotin-peptide
T7 construct: mask peptide for the CD3 scFv
T7 peptide: YLCGPDADETLACY

Peptide-77 = target: T8, Peptide-77 (cysteine pairing not given here; also: biotinylated, site not given here); assay: ELISA, TCE on captured biotin-peptide
T8 construct: mask peptide for the CD3 scFv
T8 peptide: YLCGPDTDETLACY

Peptide-70 = target: T9, Peptide-70 (cysteine pairing not given here; also: biotinylated, site not given here); assay: ELISA, TCE on captured biotin-peptide
T9 construct: mask peptide for the CD3 scFv
T9 peptide: YLCGPDGDETLACY

[6] = target: T2, Human TROP2 ECD (31-274 AA), …; assay: ELISA, captured biotin-TROP2; remark: listed apart in the source

T3 sequence (P07766 23-126 limits assumed): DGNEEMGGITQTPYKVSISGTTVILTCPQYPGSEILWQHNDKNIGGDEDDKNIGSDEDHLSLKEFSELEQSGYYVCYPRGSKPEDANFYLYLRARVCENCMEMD

B1: PC-1 (bispecific antibody)
light: GGVDFCKIYSWPVCHQGGGGSGGLSGRSDAGSPLGLAGSGGSDIQLTQSPSSLSASVGDRVSITCKASQDVSIAVAWYQQKPGKAPKLLIYSASYRYTGVPDRFSGSGSGTDFTLTISSLQPEDFAVYYCQQHYITPLTFGAGTKVEIKRTVAAPSVFIFPPSDEQLKSGTASVVCLLNNFYPREAKVQWKVDNALQSGNSQESVTEQDSKDSTYSLSSTLTLSKADYEKHKVYACEVTHQGLSSPVTKSFNRGEC
heavy: not shown
notes: anti-TROP2 wt
EC50 [1]: 49.4 nM

B2: PC-31 (anti-TROP2 D109A; anti-CD3 F104A), masked polypeptide complex (bispecific antibody)
light: GGVDFCGLYHWPICYQGGGGSGGLSGRSDAGSPLGLAGSGGSDIQLTQSPSSLSASVGDRVSITCKASQDVSIAVAWYQQKPGKAPKLLIYSASYRYTGVPDRFSGSGSGTDFTLTISSLQPEDFAVYYCQQHYITPLTFGAGTKVEIKRTVAAPSVFIFPPSDEQLKSGTASVVCLLNNFYPREAKVQWKVDNALQSGNSQESVTEQDSKDSTYSLSSTLTLSKADYEKHKVYACEVTHQGLSSPVTKSFNRGEC
heavy: not shown
notes: LC: TROP2 mask peptide + cleavable linker + anti-TROP2 LC; HC: anti-albumin single domain + CD3 mask peptide + cleavable linker + anti-CD3 scFv + anti-TROP2 Fab HC
EC50 [2]: 694 nM
EC50 [3]: 1080 nM

B4: PC-5 + MTSP1 (bispecific antibody)
light: DIQLTQSPSSLSASVGDRVSITCKASQDVSIAVAWYQQKPGKAPKLLIYSASYRYTGVPDRFSGSGSGTDFTLTISSLQPEDFAVYYCQQHYITPLTFGAGTKVEIKRTVAAPSVFIFPPSDEQLKSGTASVVCLLNNFYPREAKVQWKVDNALQSGNSQESVTEQDSKDSTYSLSSTLTLSKADYEKHKVYACEVTHQGLSSPVTKSFNRGEC
chain: not shown
modifications: Protease-treated product: both masks and the anti-albumin domain are cut off in the cleavable linkers.
notes: not shown: The few linker residues left at the N-terminus of each chain after the MTSP1 cut
EC50 [4]: 0.25 nM

B5: PC-1 + MTSP1 (bispecific antibody)
light: DIQLTQSPSSLSASVGDRVSITCKASQDVSIAVAWYQQKPGKAPKLLIYSASYRYTGVPDRFSGSGSGTDFTLTISSLQPEDFAVYYCQQHYITPLTFGAGTKVEIKRTVAAPSVFIFPPSDEQLKSGTASVVCLLNNFYPREAKVQWKVDNALQSGNSQESVTEQDSKDSTYSLSSTLTLSKADYEKHKVYACEVTHQGLSSPVTKSFNRGEC
chain: not shown
modifications: Protease-treated product: both masks and the anti-albumin domain are cut off in the cleavable linkers.
notes: as for B4
EC50 [5]: 0.48 nM

Second part, led by results:

CyTROP2 HEK293 EC50 (pM) (Cyno TROP2 Full length): 0.1 pM
B3: TCE-8 (bispecific antibody)
light: DIQLTQSPSSLSASVGDRVSITCKASQDVSIAVAWYQQKPGKAPKLLIYSASYRYTGVPDRFSGSGSGTDFTLTISSLQPEDFAVYYCQQHYITPLTFGAGTKVEIKRTVAAPSVFIFPPSDEQLKSGTASVVCLLNNFYPREAKVQWKVDNALQSGNSQESVTEQDSKDSTYSLSSTLTLSKADYEKHKVYACEVTHQGLSSPVTKSFNRGEC
heavy: not shown
HCT116 Cytotoxicity EC50 (pM) (Human TROP2 Full length): 83 pM

EC50 (Peptide-73): 0.41 nM
EC50 (Peptide-76): 1.39 nM
EC50 (Peptide-77): 18.8 nM
EC50 (Peptide-70): 0.33 nM
EC50 [6]: 5.92 nM
B6: TCE-39 (anti-CD3 scFv P41S, A49G, N87S, L150F, T151S, G163R, P175A, K181T, T200V, A202D, L208I, G211N, L217I, S218T, V220A, P222A, E223D, A226S, E227D; … (bispecific antibody)
light: DIQLTQSPSSLSASVGDRVSITCKASQDVSIAVAWYQQKPGKAPKLLIYSASYRYTGVPDRFSGSGSGTDFTLTISSLQPEDFAVYYCQQHYITPLTFGAGTKVEIKRTVAAPSVFIFPPSDEQLKSGTASVVCLLNNFYPREAKVQWKVDNALQSGNSQESVTEQDSKDSTYSLSSTLTLSKADYEKHKVYACEVTHQGLSSPVTKSFNRGEC
heavy: EVQLVESGGGLVQPGGSLKLSCAASGFTFNKYAMNWVRQASGKGLEWVGRIRSKYNNYATYYADSVKDRFTISRDDSKNTAYLQMNSLKTEDTAVYYCVRHGNFGNSYISYWAYWGQGTLVTVSSGGGGSGGGGSGGGGSQTVVTQEPSFSVSPGGTVTLTCRSSTGAVTSGNYANWVQQTPGQAPRGLIGGTKFLAPGVPDRFSGSILGNKAALTITGAQADDESDYYCVLWYSNRWVFGGGTKLTVLGGGGSQVQLQQSGSELKKPGASVKVSCKASGYTFTNYGMNWVKQAPGQGLKWMGWINTYTGEPTYTDDFKGRFAFSLDTSVSTAYLQISSLKADDTAVYFCARGGFGSSYWYADVWGQGSLVTVSSASTKGPSVFPLAPSSKSTSGGTAALGCLVKDYFPEPVTVSWNSGALTSGVHTFPAVLQSSGLYSLSSVVTVPSSSLGTQTYICNVNHKPSNTKVDKKVEPKSC
notes: scFv on the Fab heavy chain
